This series can be described thus: soluble on expression in E. coli; label from the status in PepcDB or PDB records.
For “MSQFGGGKPPGQWHRPAAPGGAPQLSGFSAVNFGGVPMVGMGVPMGMVNQAAFSSQGVLGMQGIMGAVPQQSLPQQQPNFQQQNSLQQGTNMQQNSGAKNQRTFVGVVTKMLDTYGFVDDDVFFQHSVIRGSHPRVGDKVMVEANYNPSMPFKWNAYRIQLLNAATQQEPARQAPQQQQMHQPQRGGQESQRWGAAPASGTSDRADRNGGARGNDSPLHRSSAARRHSPPPRRASPPRRTSSPKRDARPAREIRDSREPREVRRSPPPRRAASPRKASSPSAPAKNDRKRERSPSGSVAPSVRRESASPPRRRARIIPRYECRAQKPALLSPIVSGSVLRHRYSKLYLPSDYVDLSFDWVRSFQLDLSLDLSNPIQFHVFNKDVDFIGEEEIQDLDPEDADHRHQVKVLLLSHAGKSEVVKKAFCLMADGTTDDHQEPQSLLKNLHFLVGARGKETMGIGGSWSPSQDGADPNSATTMIRTAVRTTKSLTGIDLSSVSQWFSMVQIRYYRADKQRIDHVNYLLPDTQSLALDDAQWMLAETKIAEQLKAKLANVDALKIEEDEPPVVMMVEESESVVAAAAAAADVVPEQSIPDVKKEEELQAEEPKVLDNVKESIVLLWAEESDVVADVSMNSTTDADNSEAPAAENGQGPTNWSNLDPKSMKVAELRVELELRGLETKGIKTLLVQRLQTALDTEKAAEASVAARDVEMRDAAENAVKQEGGEENPAAFIAPSIEETKAKTEAEAKKEAEEAEKRKKKEEQLEKEKKEKREALEKHYQLPKDKKILVFPSKSFKSGKFDCKVLSLSSLLDYRHDDNKENQFEVSLFAEAFKEMIERNAAFTIYETLANCGDRDAEKKRRDEAREKPVEPKEPKEPAETTEKAAEGEEKKDEKEEKRDEKKDEKREEKREKVERIDLKSVVANRTVYEAFSLFDSNLCGYLTEKDIEEILYNGEFGISRGQIQKLAKKLSVRDKINYRHLTDVLTDMDGNVRHTPGGADDVVETDDLIRGFGYNLAKSMEPADSGAAVKSSEVSASSDGVVIINGSAVNVVQKMKLLKQVEKERDEAKSTVSEQLSLIEQLREAKAEIDKKKKDIDSHYHKSNKKLNETSAQLKSTQDENSALKQALQDCKRHADRIFSVVEKVMPPPPKKEEKSKKDEKEKTDKKDDKVSEKSAEKSTEEPSQEVPASAEQAAEPSTEAEPIVIDESEDKDAEVVEESKE”, the “soluble on expression in E. coli” value was “not soluble”.

Take “MGSDKIHHHHHHMERLFESFIKKLAITNTSFVRSLMNEIEWEARLIGIKGARGVGKTTLLLQYIKLNLPMDKTVLYASVDNIWFSEHKLYDLASDFVKRGGKYLFLDEVHKYPNWSQELKNIYDDLPELHVVFTGSSLLEILNAKSDLSRRAIVYEMQGFSFREYLNWNEKLSLPILTLNNILDNHLALSVGIVDKVKVLKHFSDYLKHGYYPYYNELPSLYYSRINEVVNLIVELEIPQLRGVDISYTTKIKQLLYIIAESAPFIPNVSKLSERIGISRNSLLAYLDALHDSCLTMNLQKEGSGISRLQKPDKLFLENPNLMYALSASQIDIGNVRETFFANQLRYCHKINVSKESDFFIDGRYTFEVGGRHKGKQQINGLSDAYIVADDIEYGINNKIPLWLFGFLY”: the “soluble on expression in E. coli” value was “not soluble”.

For the sequence “MRGSHHHHHHTDPALRASSNTFTLGTKSVNRLGYGAMQLAGPGVFGPPRDRHVAITVLREALALGVNHIDTSDFYGPHVTNQIIREALYPYSDDLTIVTKIGARRGEDASWLPAFSPAELQKAVHDNLRNLGLDVLDVVNLRVMMGDGHGPAEGSIEASLTVLAEMQQQGLVKHIGLSNVTPTQVAEARKIAEIVCVQNEYNIAHRADDAMIDALAHDGIAYVPFFPLGGFTPLQSSTLSDVAASLGATPMQVALAWLLQRSPNILLIPGTSSVAHLRENMAAEKLHLSEEVLSTLDGISREGLCGR”, the “soluble on expression in E. coli” value is “soluble”.

For the sequence “MAHHHHHHMHPFYTIRYPPSKGSNESQPILVTDTAIEPLFFCIVYSIEFQCPVQTTESRTANSRSSSFPFGGRASGSGGKREANELHVCPVENTSKLLGNVTYVSCLDHNPTLLASLQTAVDAARAIPIPEDEQKVPLQLCVRLLHKQTRWLWEESRPLVEWTFKIVKTRGLSYAAVPEASSGASARNTNVEFVHASGPAQIREVLQFILKHSYEAIDLNTFSDFKSGELVFEVFVDQAR”, the “soluble on expression in E. coli” value is given as “soluble”.

Turning to “SGVDRVLVKSEAWADNRLPLTEAELALIATPPEDSDMASLQQQRQEQNYFVRLGSLSERLRNHAYEHSLGKLQNARQKAQETLQQLTSVLGLMESVKQGVDQRLGEGQEKLHQMWLSWNQKTPQDAEKDPAKPEQVEARALSMFRDITQQLQSMCVALGASIQGLPSHVREQAQQARSQVNDLQATFSGIHSFQDLSAGVLAQTRERIARAREALDNTVEYVAQNTPAMWLVGPFAPGITEKTPEGK”, the “soluble on expression in E. coli” value is listed as “soluble”.

“MSSAKHFTEVLIGGKVYTLSGFEGEEYLQKVSSYLNHKITECANSEGYRKQSADTRNVLLALNIADDYFKAKKQGDSLESDIELKDKEMYDLKHELISVQIKLENAEKELAKMKEENNDLQMQIVKLETEMKNRRK”: the “soluble on expression in E. coli” value is reported as “not soluble”.

On to “MATMSRRWNYFTPHYNDEGSIDVLDGKPPYIDLFDPLKQPLFQHLRSMHTEFSTTTADVNTTWEDASSTSSSNKGATIWFNEDAIDKSSRHEIGQSTVTHESEDDRFSFFNAVCTRLNSLQETKNSSETEEHAESPRKEKSSTPYGTDGFAPPPRSTQTNTLKVSNLPKRFESLYKKKRQQVATSDSSGFGSNASDFWSFERYGKSNQGTLERPNRLFTGTNNGFSTLQPKRRGSEAPKMTVELRYENDVPMVAKISANHAQSVTLRYFRHLFGLHYTDNCR”, for which the “soluble on expression in E. coli” value is on record as “not soluble”.

As for “MTFKDLRDFIAQLEQRGALKRIQVPISPVLEMTEVCDRTLRAKGPALLFEKPTGFDMPVLGNLFGTPERVALGMGAEDVGALREIGKLLAQLKEPEPPKGLKDAWAKLPMYRKVLSMAPKVLKDAPCQEVVEEGEDVDLGRLPVQTCWPGDVGPLITWGLTVTRGPNKERQNLGIYRQQVIGRNKVIMRWLSHRGGALDYREWCQKHPGQPYPVAVALGADPATILGAVTPVPDTLSEYAFAGLLRGHRTELVKCRGSDLQVPASAEIVLEGVIHPGEMADEGPYGDHTGYYNEVDRFPVFTVERVTRRQKPIYHSTYTGRPPDEPAILGVALNEVFVPILQKQFPEIVDFYLPPEGCSYRMAVVTMKKQYPGHAKRVMLGVWSFLRQFMYTKFVIVTDDDIDARDWNDVIWAITTRMDPKRDTVMIDNTPIDYLDFASPVSGLGSKMGLDATHKWPGETSREWGRAIVKDEAVTRRIDALWSSLGIDAAALEHHHHHH”, the “soluble on expression in E. coli” value was “not soluble”.

For “MGCVSSKSTTVLSPQTSFNEASRTSFRALPGPSQRQLEVYDQCLIGAARWPDDSSKSNTPENRAYCQSMYNSIRSAGDEISRGGITSFEELWGRATEWRLSKLQRGEPLYSAFASERTSDTDAVTPLVKPYKSVLARVVDHEDAHDEIMQDNLFGDLNVKVYRQTAYLHGNVIPLNTFRVATDTEYLRDRVAHLRTELGAKALKQHLQRYNPDRIDHTNASYLPIIKDHLNDLYRQAISSDLSQAELISLIARTHWWAASAMPDQRGSAAKAEFAARAIASAHGIELPPFRNGNVSDIEAMLSGEEEFVEKYRSLLDSDCFGTGHHHHHH”, the “soluble on expression in E. coli” value is given as “soluble”.

For the sequence “QWGAPEAQKMARDLRSFALSGGSIVSVRAGVWARDANDFIFIGKVEDDKLYALNMWRFDDDKNLEKVIFAEEVDYQQDNNWLMRDVQITNMQDENVISKQEMDQMEWHTSLAPDKLAVVTVKPEELSLSGLYDYVTYLKASEQDASRYELAFWRKLTQP”, the “soluble on expression in E. coli” value was “not soluble”.

For the sequence “SGRPFVEMYSEIPEIIHMTEGRELVIPCRVTSPNITVTLKKFPLDTLIPDGKRIIWDSRKGFIISNATYKEIGLLTCEATVNGHLYKTNYLTHRQTNTIIDVQISTPRPVKLLRGHTLVLNCTATTPLNTRVQMTWSYPDEKNKRASVRRRIDQSNSHANIFYSVLTIDKMQNKDKGLYTCRVRSGPSFKSVNTSVHIYDKAFITVKHR”, the “soluble on expression in E. coli” value is on record as “soluble”.

Consider “LKDTLHNSELDDAERSSSDINNLFHSKPVKDISALDLNASLGNFQEIIIYDEHNNKLFETSNDNTVRVEPGYEHRYFDRVIKKRYKGIEYLIIKEPITTQDFKGYSLLIHSLENYDNIVKS”, for which the “soluble on expression in E. coli” value was “not soluble”.

For “VAERNSLAKTVYAIFVPLREGESQIAAEITPMRSERFGVDVLPGHPALSQIEDLMSDSWQSALGRQTGPFRRIHWAGQLAHAMERDDRYDVIFFDVGPSLGPFNRTVLLGCDAFVTPTATDLFSFHAFGNLARWFDAWVTQYAEIHEGNMAEWKKYSADVEAKTRPLRLGGFDGEGLRYLGYTTLEYVKRRANGQEQLVGAFERFRGRFAAEAERISNSLSKHSNSTLLGHVPHMHSMPATAQDVHAPIMELSSSDRVRGAQINQRNAYAEKINSVAANVYKALFPNE”, the “soluble on expression in E. coli” value is “not soluble”.

Consider “MAGRVPRLTGHCSILSRTYGHSLMDLAALRFYIAPGKKPVIAAGMPWYMALFGRDSLITSYQCCFIAPDIAFNTLRNLANLQGKEYNYFKDEEPGKILHELRFGEKTLLGKKPYSPYFGSADTCQLFLILLHEVFKWTGNKEFVNEFKEPALKALYWIDNFGDMDGDGYVEYKKRSKEGLDNHCWKDSGTSMIFSDSRLAEAPIATVEFQGYIYDAKIRLAELAEEVWDDPSFAEELRNQAKELKRRFNRDFWIEDRGGYFALGLDKNKEKIDSMTSNMGHLLWSGIVEDDRAGIIVKQLMSRDLYNGWGIRTLSSHDRGYNPIEYHNGTVWPHDNSLIAEGFIKYGYRDEANRIITNLLEASQYFDSRFPEVFAGYQRTEVDFPVSYPTSSIPQAWAAGASMLFLRLILGLEPDRKSQSIKIDPYLPQVIEDICVENIRLFNKKFSVFAGKGRSEIKLSEMAGDPLEHHHHHH”, for which the “soluble on expression in E. coli” value was “not soluble”.

Consider “MSVNALYDYKFEPKDKVENFHGMQLLYVYWPDHLLFCAPFALLVQPGMTFSALVDEILKPATAAHPDSAKADFLNAEWLLNDEPFTPKADASLKEQGIDHKSMLTVTTPGLKGMANAGY”, for which the “soluble on expression in E. coli” value is listed as “soluble”.

In the case of “MSLGFHEVRFPTNLSFGSIGGPERRTEIVTLVNGFEERNSLWAHSRRRYDAGVALRSLDDIQALLAFFEARRGQLYGFRWKDWADYRSCPATASPGPKDQPLGIGDGISREFALVKTYRSGSEQYVRPVAKPVAGSVKVAVAGAVLVEGAGFSVDETRGLVTLAAAPAEGAAVTAGFEFDVPVRFDTDRIQISMASFQAGEVPSVPVMEVRVEGHHHHHH”, the “soluble on expression in E. coli” value is “soluble”.

Turning to “MGSDKIHHHHHHMANVTPEIVKALFTGFGKNFKDGLAKAPSQYTAIATVIKSTTASNTYAWLGQMPKLTEWIGKRAITAIQSHGYAIVNKDWASGVEIKRTDIEDDNIGVYSPLVEELGRSAGEQPDELVFGALKGGFTTECYDKQYFFDTDHPVGANPDGTSPTSVSNITDDGTSVTADGAWYLLDCSRALKPLIFQQRKPATPAQMTDANAQKVFEDNVYTRCNVGYGFWQMAHAVKGKLNAENLWKAIKAMRAVHSDGGHKLGIKPTHIVVPTSLQEEAVKLLERELRVEDGAAVDNEFKNMKLTLIVADYL”, the “soluble on expression in E. coli” value was “not soluble”.

For “MYVCKHCGSAMNKDVEIDIVGIKGNTLYVGECKWSNKKIDVRVLDRLRSKVPYLLKDLQVDNLSVVYYLFSRSGFDGLKETEEVKLVELKDLFR”, the “soluble on expression in E. coli” value is recorded as “not soluble”.

As to “MFSAPLENTMLCNMGGSHEKARARENERMRERERGKEQRTYFATGSLARCQAGSVRRAPGTRRHPGSSTVQGFGTVVSLEANKEMKKEETFFFASLFLYRLGGPLTGTVGYANKTTGR”, the “soluble on expression in E. coli” value is given as “not soluble”.

For “PEYQANVQILVNRKHSSAGADLTGQQADVQMITTYKELITKPVVLKPARQTLMAETDIRRSLESLKQTVSVTSTANSQVFSIGVRDKNAKASAMIANQIAATFKDQVQHIIKVNNVTIVAPAETPDQSVAPKK”, the “soluble on expression in E. coli” value is “not soluble”.

The values are drawn from the DeepSol protein solubility set.
